This is an account of results in article PMC7702011 (2020).

A word on the Kd: it is the free concentration of one partner at which half of the binding sites on the other are occupied at equilibrium, for simple one-to-one binding.

The target of this assay is Recombinant NPTN polypeptide (UniProt Q9Y639 29-398). Put plainly: MST.
Sequence of Recombinant NPTN polypeptide (Q9Y639 29-339): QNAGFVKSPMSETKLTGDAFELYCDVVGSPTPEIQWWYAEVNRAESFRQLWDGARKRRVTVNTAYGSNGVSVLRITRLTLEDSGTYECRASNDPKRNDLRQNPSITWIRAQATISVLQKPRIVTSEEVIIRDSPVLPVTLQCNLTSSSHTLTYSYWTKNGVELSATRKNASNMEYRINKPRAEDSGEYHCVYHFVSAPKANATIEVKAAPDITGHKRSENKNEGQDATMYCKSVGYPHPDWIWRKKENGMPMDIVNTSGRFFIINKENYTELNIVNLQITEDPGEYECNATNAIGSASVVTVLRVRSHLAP

B1: Recombinant MANF polypeptide, labeled with Alexa 647 (ligand)
chain: LRPGDCEVCISYLGRFYQDLKDRDVTFSPATIENELIKFCREARGKENRLCYYIGATDDAATKIINEVSKPLAHHIPVEKICEKLKKKDSQICELKYDKQIDLSTVDLKKLRVKELKKILDDWGETCKGCAEKSDYIRKINELMPKYAPKAASARTDL
modifications: fluorescently labeled with Alexa 647
Turning to B1, the Kd is 104 nM.
